For assay [1], the target named is T1, human alpha-synuclein protein, monomeric (human, UniProt P37840 1-140). As to the kind of experiment: SPR (Biacore), full-cycle kinetics: IgG captured on anti-human Fc CM5 chip, alpha-synuclein monomer injected, 1:1 Langmuir fit.
The target of assay [2] is human alpha-synuclein protein (full-length; monomer/oligomer form not specified at the place) (human, UniProt P37840 1-140). As to the kind of experiment: SPR (Biacore T200), protein captured by anti-human-Fc on a CM5 chip, recombinant alpha-synuclein injected (Table 14).
Assay [3] has as its target T1, human alpha-synuclein protein, monomeric. Description: SPR (Biacore).
Assay [4] has the same target. As to the kind of experiment: SPR (Biacore), single-cycle kinetics, alpha-synuclein monomer. On the technique in general: In SPR one partner is held on a chip, and binding of the other changes the refractive index at the surface.

Results on eight molecules are retold here after WO2018237338A1 (dated 2018).

Broadly, the Kd is a measure of binding affinity in units of concentration. In general, koff refers to the rate constant with which the complex falls apart. A high value points to fast dissociation. For orientation: kon means the rate constant with which the complex forms.

Where a chain is given by its changes, count along the chain named. In names and notes the source's numbering stands.

B1: Clone 2F09 (antibody, V domains shown)
VH: EVHVKQSGPELVEPGASVKISCKTSGYTFASYAISWVKQRTGQGLEWIGEIYPGSGDTYYDEKFKGKATLTADKSSSTAYMELRSLTSEDSAVYFCASDYDAYWGQGTLVTVSA
VL: DIVLTQTPLSLPVSLGDQASISCRSSQSLVHRNGNTYLHWYLQKPGQSPKLLIYRISNRFSGVPDRFSGSGSGTDFTLKISRVEAEDLGVYFCSQSTHVPLTFGAGTKLEIK
notes: Mouse variable regions with human IgG1 and kappa constant regions
In assay [1], B1 showed a Kd of 1.63 nM, a koff of 0.0015 s⁻¹ and a kon of 920000 M⁻¹ s⁻¹.

B2: 2F09/35.21.17.2 (bispecific antibody, human IgG1, kappa)
heavy 1: EVHVKQSGPELVEPGASVKISCKTSGYTFASYAISWVKQRTGQGLEWIGEIYPGSGDTYYDEKFKGKATLTADKSSSTAYMELRSLTSEDSAVYFCASDYDAYWGQGTLVTVSAASTKGPSVFPLAPSSKSTSGGTAALGCLVKDYFPEPVTVSWNSGALTSGVHTFPAVLQSSGLYSLSSVVTVPSSSLGTQTYICNVNHKPSNTKVDKKVEPKSCDKTHTCPPCPAPELLGGPSVFLFPPKPKDTLMISRTPEVTCVVVDVSHEDPEVKFNWYVDGVEVHNAKTKPREEQYNSTYRVVSVLTVLHQDWLNGKEYKCKVSNKALPAPIEKTISKAKGQPREPQVYTLPPSRDELTKNQVSLWCLVKGFYPSDIAVLWESYGTEWASYKTTPPVLDSDGSFFLYSKLTVTKEEWQQGFVFSCSVMHEALHNHYTQKSLSLSPGK
heavy 2: not shown
light: DIVLTQTPLSLPVSLGDQASISCRSSQSLVHRNGNTYLHWYLQKPGQSPKLLIYRISNRFSGVPDRFSGSGSGTDFTLKISRVEAEDLGVYFCSQSTHVPLTFGAGTKLEIKRTVAAPSVFIFPPSDEQLKSGTASVVCLLNNFYPREAKVQWKVDNALQSGNSQESVTEQDSKDSTYSLSSTLTLSKADYEKHKVYACEVTHQGLSSPVTKSFNRGEC
notes: Knob:hole:light chain were co-transfected 1:1:2
As to B2, the binding result in assay [2] is given as “binds”.

B3: Clone 2F10 (antibody, human IgG1, V domains shown)
VH: EVKLQESGPGLVKPSQSLSLTCSVTGYSITSGYYWNWIRQFPGNKLEWLGYISDDGRNNYNPSLKNRISITRDTSKNQLFLKLNSVTTEDTATYYCVRGDYGPWGQGTTVTVSS
VL: DVVMTQTPLTLSVTIGQPAFISCKSNQSLLDYDGETYLNWLFLRPGQSPKRLIYLVSKQDSGVPDRFTGIGSGTDFTLKINRVEAEDLGIYYCWQGTHFPQTFGGGTKLELK
notes: Biacore: mouse variable regions with human IgG1 and kappa constant regions; A mouse IgG version was also used elsewhere
With B3, in assay [1], the dissociation constant (Kd) worked out at 6.7 nM, the off-rate (koff) came out at 0.00067 s⁻¹ and the on-rate (kon) was found to be 100000 M⁻¹ s⁻¹.

B4: 1F4/35.21.17.2 (bispecific antibody, human IgG1, kappa)
heavy 1: EVQLVESGGGLVQPKGSLKLSCAASGFSFNTYAMNWVRQAPGKGLEWVARIRTKSNNYATYYADSVKDRFTISRDDSESKFHLQMNNLKTEDTAIYYCVRQGIDFYAMDYWGQGTSVTVSSASTKGPSVFPLAPSSKSTSGGTAALGCLVKDYFPEPVTVSWNSGALTSGVHTFPAVLQSSGLYSLSSVVTVPSSSLGTQTYICNVNHKPSNTKVDKKVEPKSCDKTHTCPPCPAPELLGGPSVFLFPPKPKDTLMISRTPEVTCVVVDVSHEDPEVKFNWYVDGVEVHNAKTKPREEQYNSTYRVVSVLTVLHQDWLNGKEYKCKVSNKALPAPIEKTISKAKGQPREPQVYTLPPSRDELTKNQVSLWCLVKGFYPSDIAVLWESYGTEWASYKTTPPVLDSDGSFFLYSKLTVTKEEWQQGFVFSCSVMHEALHNHYTQKSLSLSPGK
heavy 2: not shown
light: DVLMTQSPLSLSVSLGDQASISCRSSRDIVHSNGNTYLEWYLQKPGQSPKLLIYKVSNRFSGVPDRFSGSGSGTDFTLKISRVEAEDLGVYYCFQGTLIPLTFGAGTKLELKRTVAAPSVFIFPPSDEQLKSGTASVVCLLNNFYPREAKVQWKVDNALQSGNSQESVTEQDSKDSTYSLSSTLTLSKADYEKHKVYACEVTHQGLSSPVTKSFNRGEC
As for B4, in assay [2], the binding result is “binds”.

B5: Clone 1F06 (antibody, V domains shown)
VH: EVKLVESGGGLVKPGGSLKLSCAASGFIFSDYGMHWVRQAPEKGLEWIAFISSGNNTVYYADTVKGRFTISRDSAKKTLFLQMTSLRSEDTAMYYCVRHSNFCDYWGQGTSVTVSS
VL: DVQMTQTPLSLPVSLGDQASISCRSSQSIVHSNGNTYLEWYLQKPGQSPKLLIYKVSNRFSGVPDRFSGSGSGTDFTLKISRVEAEDLGVYYCFQGSHVPPTFGAGTKLELK
notes: also called antibody 1F06
Consider B5, for which the binding result in assay [3] is recorded as “binds”.

B6: Clone 1F06 C99M (antibody, human IgG1, V domains shown)
VH: B5 VH with C103M
VL: B5 VL
notes: Human IgG1/kappa chimeric format like 1F06; C99 (Kabat, CDR-H3) is replaced by Met; also called 1F06 C99M variant; C99M variant of 1F06
On to B6, for which the binding result in assay [4] was “binds”.

B7: Clone 3C02 (antibody, human IgG1, V domains shown)
VH: EVKLLESGGGLVQPGGSLKLSCAASGFTFSDYGMHWVRQAPEKGLEWIAYISRGSSAIYYADAVKGRFTISRDNAKNTLFLQMTSLRSEDTAMYYCRSPLRYFDVWGTGTSVTVSS
VL: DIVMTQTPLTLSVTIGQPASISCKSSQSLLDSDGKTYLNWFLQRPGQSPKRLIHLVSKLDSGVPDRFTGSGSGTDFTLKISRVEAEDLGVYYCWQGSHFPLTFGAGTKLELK
notes: as for B1
With B7, in assay [1], the affinity, expressed as Kd, was 29.3 nM; the dissociation rate constant (koff) is 0.0012 s⁻¹; the kon was 41000 M⁻¹ s⁻¹.

B8: Clone 2D02 (antibody, V domains shown)
VH: EVKLQESGPGLVKPSQSLSLTCSVTGYSITSGYYWNWIRQFPGNKLEWLGFISSDGNSDYNPSLKNRISVTRDTSKNQFFLQLNSVTTEDTATYYCLRGDVDWGQGTTLTVSS
VL: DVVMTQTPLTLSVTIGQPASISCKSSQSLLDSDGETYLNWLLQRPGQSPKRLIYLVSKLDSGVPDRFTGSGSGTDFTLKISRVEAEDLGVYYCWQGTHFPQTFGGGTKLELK
notes: Biacore: mouse variable regions with human IgG1 and kappa constant regions
As to B8, in assay [1], the dissociation constant (Kd) is 6.38 nM, the koff is 0.0003 s⁻¹ and the on-rate (kon) worked out at 47000 M⁻¹ s⁻¹.
